Assay results: PMC9482650, “Quantitative fragmentomics allow affinity mapping of interactomes” (Nature Communications, 2022)

Columns and labels:
Test in all cases: holdup assay
Design in all cases: key: below the threshold = too weak to quantify, mostly under pKd 3.1 to 4
Conditions in all cases: plain residues with an end cap or a label only (N-terminal biotin on a linker: ado-ado)
GIPC2, Q8TF65 = molecular target: GIPC2, Q8TF65
PDZD2_2, O15018 = molecular target: T1, PDZD2_2, O15018
T1 sequence (O15018 329-429, limits assumed, looked up): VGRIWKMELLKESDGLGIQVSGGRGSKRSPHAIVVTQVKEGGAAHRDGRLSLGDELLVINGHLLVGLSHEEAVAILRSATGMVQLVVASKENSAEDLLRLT

HTRA1, Q92743 = molecular target: HTRA1, Q92743
MAGI2_3, Q86UL8 = molecular target: MAGI2_3, Q86UL8
PTPN3, P26045 = molecular target: PTPN3, P26045
HTRA4, P83105 = molecular target: T2, HTRA4, P83105
T2 sequence (P83105 378-476, limits assumed, looked up): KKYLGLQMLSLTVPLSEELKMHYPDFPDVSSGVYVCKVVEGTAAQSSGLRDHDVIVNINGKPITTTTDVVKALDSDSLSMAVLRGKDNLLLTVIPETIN

Inadl_5, Q8NI35 = molecular target: Inadl_5, Q8NI35
SIPA1L2, Q9P2F8 = molecular target: T3, SIPA1L2, Q9P2F8
T3 sequence (Q9P2F8 945-1036, limits assumed, looked up): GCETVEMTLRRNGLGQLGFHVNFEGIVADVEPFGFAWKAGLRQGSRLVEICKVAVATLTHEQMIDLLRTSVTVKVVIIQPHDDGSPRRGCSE

ARHGEF12, Q9NZN5-2 = molecular target: ARHGEF12, Q9NZN5-2
LNX1_3, Q8TBB1 = molecular target: LNX1_3, Q8TBB1
CARD11, Q9BXL7 = molecular target: T4, CARD11, Q9BXL7
T4 sequence (Q9BXL7 662-765, limits assumed, looked up): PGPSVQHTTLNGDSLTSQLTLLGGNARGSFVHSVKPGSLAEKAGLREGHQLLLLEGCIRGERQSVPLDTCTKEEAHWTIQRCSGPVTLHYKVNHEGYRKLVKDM

MAGI2_5, Q86UL8 = molecular target: MAGI2_5, Q86UL8
NHERF3_3, Q5T2W1 = molecular target: T5, NHERF3_3, Q5T2W1
T5 sequence (Q5T2W1 238-333, limits assumed, looked up): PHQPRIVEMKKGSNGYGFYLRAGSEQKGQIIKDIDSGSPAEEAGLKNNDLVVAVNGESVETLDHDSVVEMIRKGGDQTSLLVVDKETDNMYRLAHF

SNTG1, Q9NSN8 = molecular target: T6, SNTG1, Q9NSN8
T6 sequence (Q9NSN8 52-150, limits assumed, looked up): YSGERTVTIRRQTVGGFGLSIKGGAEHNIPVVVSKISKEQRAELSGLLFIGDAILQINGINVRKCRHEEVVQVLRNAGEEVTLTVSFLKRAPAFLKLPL

PICK1, Q9NRD5 = molecular target: PICK1, Q9NRD5
FRMPD1, Q5SYB0 = molecular target: T7, FRMPD1, Q5SYB0
T7 sequence (Q5SYB0 52-145, limits assumed, looked up): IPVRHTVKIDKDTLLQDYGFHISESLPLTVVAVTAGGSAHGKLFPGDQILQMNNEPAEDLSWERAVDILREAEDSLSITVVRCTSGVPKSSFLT

DLG1_3, Q12959 = molecular target: DLG1_3, Q12959
GRIP1_2, Q9Y3R0 = molecular target: T8, GRIP1_2, Q9Y3R0
T8 sequence (Q9Y3R0 145-248, limits assumed, looked up): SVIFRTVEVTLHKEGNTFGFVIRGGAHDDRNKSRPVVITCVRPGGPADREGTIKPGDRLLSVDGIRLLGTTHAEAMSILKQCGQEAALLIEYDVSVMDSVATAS

MAGI2_4, Q86UL8 = molecular target: MAGI2_4, Q86UL8
TJP3_3, O95049 = molecular target: T9, TJP3_3, O95049
T9 sequence (O95049 375-456, limits assumed, looked up): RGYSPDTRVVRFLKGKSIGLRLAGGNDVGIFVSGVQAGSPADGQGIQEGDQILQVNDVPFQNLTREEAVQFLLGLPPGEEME

SNTA1, Q13424 = molecular target: T10, SNTA1, Q13424
T10 sequence (Q13424 82-180, limits assumed, looked up): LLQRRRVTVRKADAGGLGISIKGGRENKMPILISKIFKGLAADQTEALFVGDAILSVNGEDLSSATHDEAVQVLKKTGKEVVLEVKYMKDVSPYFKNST

Inadl_6, Q8NI35 = molecular target: Inadl_6, Q8NI35
NHERF3_4, Q5T2W1 = molecular target: T11, NHERF3_4, Q5T2W1
T11 sequence (Q5T2W1 373-468, limits assumed, looked up): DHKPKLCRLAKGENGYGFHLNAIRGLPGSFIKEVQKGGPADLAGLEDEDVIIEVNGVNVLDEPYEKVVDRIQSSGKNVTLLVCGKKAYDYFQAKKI

SCRIB_2, Q14160 = molecular target: SCRIB_2, Q14160
NHERF4_2, Q86UT5 = molecular target: NHERF4_2, Q86UT5
LDB3, O75112 = molecular target: LDB3, O75112
GRIP2_4, Q9C0E4 = molecular target: GRIP2_4, Q9C0E4
GRIP2_4, Q9C0E4, sequence (Q9C0E4 446-548): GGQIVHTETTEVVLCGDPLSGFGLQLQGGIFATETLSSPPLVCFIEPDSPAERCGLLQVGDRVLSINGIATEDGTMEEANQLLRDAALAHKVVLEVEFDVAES

MAGI2_5, Q86UL8, sequence (Q86UL8 915-1017): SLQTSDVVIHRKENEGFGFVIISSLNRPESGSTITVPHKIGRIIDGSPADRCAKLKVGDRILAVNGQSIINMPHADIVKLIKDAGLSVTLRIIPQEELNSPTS
PTPN3, P26045, sequence (P26045 505-587): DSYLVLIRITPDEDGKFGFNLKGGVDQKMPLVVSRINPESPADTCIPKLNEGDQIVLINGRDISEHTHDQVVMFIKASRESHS
PICK1, Q9NRD5, sequence (Q9NRD5 17-115): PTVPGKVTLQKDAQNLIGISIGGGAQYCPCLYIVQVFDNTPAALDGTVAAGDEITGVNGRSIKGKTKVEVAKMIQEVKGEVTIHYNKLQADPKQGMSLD
ARHGEF12, Q9NZN5-2, sequence (Q9NZN5 other isoform, or with tags, fused parts or gaps): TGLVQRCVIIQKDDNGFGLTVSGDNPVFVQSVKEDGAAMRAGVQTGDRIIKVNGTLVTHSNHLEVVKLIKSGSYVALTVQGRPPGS
HTRA1, Q92743, sequence (Q92743 360-477): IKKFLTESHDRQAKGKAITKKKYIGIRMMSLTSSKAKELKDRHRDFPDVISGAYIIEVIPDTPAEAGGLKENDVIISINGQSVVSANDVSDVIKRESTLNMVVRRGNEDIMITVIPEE
SCRIB_2, Q14160, sequence (Q14160 857-960): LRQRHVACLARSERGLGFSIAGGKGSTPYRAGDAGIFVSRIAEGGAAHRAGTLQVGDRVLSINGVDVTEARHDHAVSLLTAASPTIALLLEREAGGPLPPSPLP
Inadl_6, Q8NI35, sequence (Q8NI35 1058-1167): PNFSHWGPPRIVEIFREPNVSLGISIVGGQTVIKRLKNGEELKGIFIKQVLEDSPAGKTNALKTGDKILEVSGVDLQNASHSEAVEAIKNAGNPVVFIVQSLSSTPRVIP
LNX1_3, Q8TBB1, sequence (Q8TBB1 500-596): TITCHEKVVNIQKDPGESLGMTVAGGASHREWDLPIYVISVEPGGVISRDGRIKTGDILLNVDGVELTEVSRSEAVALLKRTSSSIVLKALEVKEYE
LDB3, O75112, sequence (O75112 1-94): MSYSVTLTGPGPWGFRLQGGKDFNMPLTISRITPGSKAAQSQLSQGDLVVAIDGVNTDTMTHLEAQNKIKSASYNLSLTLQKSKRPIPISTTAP
GIPC2, Q8TF65, sequence (Q8TF65 112-203): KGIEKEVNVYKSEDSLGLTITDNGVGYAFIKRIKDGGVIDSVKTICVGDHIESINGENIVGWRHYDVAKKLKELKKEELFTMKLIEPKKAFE
NHERF4_2, Q86UT5, sequence (Q86UT5 220-308): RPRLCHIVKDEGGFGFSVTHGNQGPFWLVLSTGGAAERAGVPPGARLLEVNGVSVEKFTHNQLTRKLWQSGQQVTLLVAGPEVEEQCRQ
DLG1_3, Q12959, sequence (Q12959 457-571): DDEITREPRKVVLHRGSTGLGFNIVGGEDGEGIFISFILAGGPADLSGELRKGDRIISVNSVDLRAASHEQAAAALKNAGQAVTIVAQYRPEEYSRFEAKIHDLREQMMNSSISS
Inadl_5, Q8NI35, sequence (Q8NI35 673-780): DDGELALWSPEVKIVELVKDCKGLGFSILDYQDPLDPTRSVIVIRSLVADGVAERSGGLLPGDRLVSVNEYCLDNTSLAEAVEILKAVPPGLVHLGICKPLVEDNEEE
MAGI2_3, Q86UL8, sequence (Q86UL8 600-682): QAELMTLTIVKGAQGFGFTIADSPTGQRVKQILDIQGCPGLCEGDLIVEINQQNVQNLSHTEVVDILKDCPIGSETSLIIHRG
MAGI2_4, Q86UL8, sequence (Q86UL8 772-865): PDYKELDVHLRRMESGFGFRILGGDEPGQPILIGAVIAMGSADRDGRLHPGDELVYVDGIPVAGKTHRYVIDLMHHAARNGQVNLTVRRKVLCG

Binder | pKd (GIPC2, Q8TF65) | pKd (PDZD2_2, O15018) | pKd (HTRA1, Q92743) | pKd (MAGI2_3, Q86UL8) | pKd (PTPN3, P26045) | pKd (HTRA4, P83105) | pKd (Inadl_5, Q8NI35) | pKd (SIPA1L2, Q9P2F8) | pKd (ARHGEF12, Q9NZN5-2) | pKd (LNX1_3, Q8TBB1) | pKd (CARD11, Q9BXL7) | pKd (MAGI2_5, Q86UL8) | pKd (NHERF3_3, Q5T2W1) | pKd (SNTG1, Q9NSN8) | pKd (PICK1, Q9NRD5) | pKd (FRMPD1, Q5SYB0) | pKd (DLG1_3, Q12959) | pKd (GRIP1_2, Q9Y3R0) | pKd (MAGI2_4, Q86UL8) | pKd (TJP3_3, O95049) | also measured
VNKSKLLTDV [KCNA1, Q09470] | below the threshold | 4.07 | below the threshold | below the threshold | 3.65 | below the threshold | below the threshold | below the threshold | 4.56 | below the threshold | below the threshold | below the threshold | below the threshold | below the threshold | below the threshold | below the threshold | below the threshold | below the threshold | 3.79 | below the threshold | pKd (SNTA1, Q13424): below the threshold; pKd (Inadl_6, Q8NI35): below the threshold; pKd (NHERF3_4, Q5T2W1): below the threshold; pKd (SCRIB_2, Q14160): below the threshold; pKd (NHERF4_2, Q86UT5): below the threshold; pKd (LDB3, O75112): below the threshold; pKd (GRIP2_4, Q9C0E4): below the threshold
TPPAAKKSRI [BAZ1A, Q9NRL2] | below the threshold | 3.97 | below the threshold | below the threshold | 3.93 | below the threshold | below the threshold | below the threshold | 3.66 | below the threshold | below the threshold | below the threshold | below the threshold | below the threshold | below the threshold | below the threshold | 3.81 | below the threshold | 3.71 | below the threshold | pKd (SNTA1, Q13424): below the threshold; pKd (Inadl_6, Q8NI35): below the threshold; pKd (NHERF3_4, Q5T2W1): below the threshold; pKd (SCRIB_2, Q14160): below the threshold; pKd (NHERF4_2, Q86UT5): below the threshold; pKd (LDB3, O75112): below the threshold; pKd (GRIP2_4, Q9C0E4): below the threshold
NLSIEKETKL [ASNSD1, Q9NWL6] | below the threshold | 3.83 | below the threshold | below the threshold | 5.21 | below the threshold | below the threshold | below the threshold | 4.43 | below the threshold | below the threshold | below the threshold | 4.67 | 4 | 3.95 | below the threshold | 3.53 | below the threshold | below the threshold | below the threshold | pKd (SNTA1, Q13424): 4.9; pKd (Inadl_6, Q8NI35): 4.22; pKd (NHERF3_4, Q5T2W1): 4.13; pKd (SCRIB_2, Q14160): below the threshold; pKd (NHERF4_2, Q86UT5): below the threshold; pKd (LDB3, O75112): below the threshold; pKd (GRIP2_4, Q9C0E4): below the threshold
EVNETDDTKM [KCNJ1, P48048] | below the threshold | 3.5 | below the threshold | 3.48 | 4.35 | 4.14 | below the threshold | below the threshold | 3.75 | below the threshold | below the threshold | 4.04 | below the threshold | 3.54 | 4.17 | below the threshold | below the threshold | below the threshold | 3.63 | below the threshold | pKd (SNTA1, Q13424): below the threshold; pKd (Inadl_6, Q8NI35): 3.54; pKd (NHERF3_4, Q5T2W1): 3.48; pKd (SCRIB_2, Q14160): 3.83; pKd (NHERF4_2, Q86UT5): below the threshold; pKd (LDB3, O75112): below the threshold; pKd (GRIP2_4, Q9C0E4): below the threshold
SKENVQETQI [LRRC4B, Q9NT99] | below the threshold | 3.97 | below the threshold | 3.63 | 4.8 | below the threshold | below the threshold | below the threshold | 4.4 | below the threshold | below the threshold | 4.13 | below the threshold | 4.94 | below the threshold | below the threshold | 3.77 | below the threshold | below the threshold | below the threshold | pKd (SNTA1, Q13424): 4.77; pKd (Inadl_6, Q8NI35): 3.71; pKd (NHERF3_4, Q5T2W1): below the threshold; pKd (SCRIB_2, Q14160): 4.27; pKd (NHERF4_2, Q86UT5): below the threshold; pKd (LDB3, O75112): below the threshold; pKd (GRIP2_4, Q9C0E4): below the threshold
